Substitutions are numbered along the chain they refer to. Numbers in names are those of the source.
What was measured:
[1] = molecular target: T1, GST-tagged Pediculus humanus PINK1 (residues 128–575) (Pediculus humanus) (UniProt E0W1I1)
T1 sequence: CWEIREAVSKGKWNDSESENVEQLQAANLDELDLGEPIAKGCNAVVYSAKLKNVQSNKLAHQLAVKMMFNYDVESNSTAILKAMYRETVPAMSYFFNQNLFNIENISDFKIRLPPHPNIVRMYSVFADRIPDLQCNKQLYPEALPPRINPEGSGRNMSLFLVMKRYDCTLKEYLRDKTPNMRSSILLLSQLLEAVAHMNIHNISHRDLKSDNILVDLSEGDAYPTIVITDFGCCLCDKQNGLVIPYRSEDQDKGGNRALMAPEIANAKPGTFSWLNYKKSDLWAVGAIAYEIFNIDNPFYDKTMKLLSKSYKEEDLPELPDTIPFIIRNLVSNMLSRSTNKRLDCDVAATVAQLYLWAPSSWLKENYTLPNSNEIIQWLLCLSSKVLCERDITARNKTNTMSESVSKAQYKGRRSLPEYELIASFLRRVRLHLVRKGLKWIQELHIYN

[2] = molecular target: T1, GST-tagged Pediculus humanus PINK1 (residues 128–575) (Pediculus humanus); remark: listed apart in the source
[3] = molecular target: T2, C-terminal portion of ataxin-3 (residues 194–361) containing three UIM regions (UniProt P54252 194-361); experiment: NMR titration; unlabelled ataxin^194–361 titrated into 15N-labelled Ubl variants, 1H-15N HSQC chemical shift changes, global fit for a single Kd (apparent); 150 uM Ubl domain (75 uM pUbl^P37L); 25 mM HEPES, 100 mM NaCl, 0.5 mM TCEP, pH 7.0, 25 °C; conditions: both partners purified
T2 construct: Unlabelled in the NMR titrations; also called ataxin^194–361; tandem UIM region from ataxin-3; source: E. coli BL21(DE3), purified (Ni-NTA, TEV cleavage, second Ni-NTA)
T2 sequence (P54252 194-361): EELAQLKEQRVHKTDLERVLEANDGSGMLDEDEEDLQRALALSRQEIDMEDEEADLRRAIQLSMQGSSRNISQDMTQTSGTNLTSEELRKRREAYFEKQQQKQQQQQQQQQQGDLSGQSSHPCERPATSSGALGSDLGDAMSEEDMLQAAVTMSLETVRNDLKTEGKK

full-length parkin (1–465) G12R (from UniProt O60260 1-465) (enzyme)
rate of Ser-65 phosphorylation by PINK1 (time course, pSer-65 antibody Western blot), against WT full-length parkin [1]: 40%

parkin Ubl domain (1–76) I44A (from UniProt O60260 1-76) (domain or fragment)
phosphorylation by PINK1 against the WT Ubl domain (data not shown) [2]: 20 fold

B1: parkin Ubl domain (1–76), wild type (domain or fragment, human, UniProt O60260 1-76, looked up)
chain: MIVFVRFNSSHGFPVEVDSDTSIFQLKEVVAKRQGVPADQLRVIFAGKELRNDWTVQNCDLDQQSIVHIVQRPWRK
notes: parkin, human, ubiquitin-like (Ubl) domain, residues 1-76; 15N-labelled for the NMR titrations; also called WT Ubl domain; source: E. coli BL21(DE3), purified (Ni-NTA, Ulp1 cleavage, Superdex75)
Kd [3]: 187 ± 19 µM

B2: parkin Ubl domain (1–76) P37L (domain or fragment, human, UniProt O60260 1-76, looked up)
chain: B1 chain with P37L
notes: parkin, human, ubiquitin-like (Ubl) domain, residues 1-76, ARJP substitution P37L; 15N-labelled for the NMR titrations; Disease-associated (ARJP) substitution; also called Ubl^P37L; source: E. coli BL21(DE3), purified (Ni-NTA, Ulp1 cleavage, Superdex75)
Kd [3]: 61 ± 2 µM

B3: parkin Ser-65–phosphorylated Ubl domain (1–76) (domain or fragment, human, UniProt O60260 1-76, looked up)
chain: B1 chain
modifications: phosphoserine at 65
notes: parkin, human, ubiquitin-like (Ubl) domain, residues 1-76, phosphorylated at Ser-65; 15N-labelled for the NMR titrations; the preparative phosphorylation is not described; also called pUbl; pSer-65 Ubl; source: E. coli BL21(DE3), purified (Ni-NTA, Ulp1 cleavage, Superdex75); phosphorylated at Ser-65
Kd [3]: 652 ± 175 µM

B4: parkin Ubl domain (1–76) S65E, phosphomimetic (domain or fragment, human, UniProt O60260 1-76, looked up)
chain: B1 chain with S65E
notes: parkin, human, ubiquitin-like (Ubl) domain, residues 1-76, S65E; 15N-labelled for the NMR titrations; also called Ubl^S65E; source: E. coli BL21(DE3), purified (Ni-NTA, Ulp1 cleavage, Superdex75)
Kd [3]: 227 ± 26 µM

B5: parkin Ser-65–phosphorylated Ubl domain (1–76) P37L (domain or fragment, human, UniProt O60260 1-76, looked up)
chain: B1 chain with P37L
modifications: phosphoserine at 65
notes: parkin, human, ubiquitin-like (Ubl) domain, residues 1-76, ARJP substitution P37L, phosphorylated at Ser-65; 15N-labelled; used at 75 uM in the NMR titration; also called pUbl^P37L; pP37L; source: E. coli BL21(DE3), purified (Ni-NTA, Ulp1 cleavage, Superdex75); phosphorylated at Ser-65
Kd [3]: 231 ± 72 µM

— paper PMC5925814, “Impact of altered phosphorylation on loss of function of juvenile Parkinsonism–associated genetic variants of the E3 ligase parkin” (The Journal of Biological Chemistry, 2018)
